Laboratory results: the supplement of paper PMC9233669
This sample holds only a part of the variants without activity.

Experiments:
biotinyl-Phe-oxazolone = test: self-aminoacylation, catalytic enhancement (BFO) (fold over background); higher = more active; k-Seq, kA / k0A0; sequences stand for … in GGGAAUGGAUCCACAUCUACGAAUUC…UUCACUGCAGACUUGACGAAGCUG
Outline: (§1)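 Each biotinyl-aminoacyl-oxazolone, at 2–1250 μM, was incubated with mutagenized RNA pools (0.43 μM) carrying a 21-nt variable region. The 50 μL reactions contained HEPES/NaCl/KCl/MgCl2/CaCl2 buffer with 5% acetonitrile at pH 6.9–7.0 and ran for 90 minutes at room temperature. After streptavidin capture, RNA was measured by qPCR in triplicate and by Illumina sequencing, and catalytic enhancement was calculated as median kA over the uncatalyzed rate from a pseudo-first-order fit of per-sequence fraction reacted.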

biotinyl-Val-oxazolone = test: self-aminoacylation, catalytic enhancement (BVO) (fold over background); higher = more active; k-Seq, kA / k0A0; sequences stand for … in GGGAAUGGAUCCACAUCUACGAAUUC…UUCACUGCAGACUUGACGAAGCUG
Outline: as §1

biotinyl-Ile-oxazolone = test: self-aminoacylation, catalytic enhancement (BIO) (fold over background); higher = more active; k-Seq, kA / k0A0; sequences stand for … in GGGAAUGGAUCCACAUCUACGAAUUC…UUCACUGCAGACUUGACGAAGCUG
Outline: as §1

biotinyl-Trp-oxazolone = test: self-aminoacylation, catalytic enhancement (BWO) (fold over background); higher = more active; k-Seq, kA / k0A0; sequences stand for … in GGGAAUGGAUCCACAUCUACGAAUUC…UUCACUGCAGACUUGACGAAGCUG
Outline: as §1

biotinyl-Leu-oxazolone = test: self-aminoacylation, catalytic enhancement (BLO) (fold over background); higher = more active; k-Seq, kA / k0A0; sequences stand for … in GGGAAUGGAUCCACAUCUACGAAUUC…UUCACUGCAGACUUGACGAAGCUG
Outline: as §1

biotinyl-Met-oxazolone = test: self-aminoacylation, catalytic enhancement (BMO) (fold over background); higher = more active; k-Seq, kA / k0A0; sequences stand for … in GGGAAUGGAUCCACAUCUACGAAUUC…UUCACUGCAGACUUGACGAAGCUG
Outline: as §1

Sequence | self-aminoacylation (biotinyl-Phe-oxazolone) | self-aminoacylation (biotinyl-Val-oxazolone) | self-aminoacylation (biotinyl-Ile-oxazolone) | self-aminoacylation (biotinyl-Trp-oxazolone) | self-aminoacylation (biotinyl-Leu-oxazolone) | self-aminoacylation (biotinyl-Met-oxazolone)
AAAUUAGCUAAUAGUCGCAAG [Fam3.1 aminoacylation ribozyme variant] | 2.21 | 1.81 | 2.36 | 3.09 | 1.92 | 1.85
AAAUUUCCUAAUAGUCGCAAG [Fam3.1 aminoacylation ribozyme variant] | 1.2 | 1.09 | 1.24 | 0.976 | 1.18 | 1.1
AAAUUUGCGAAUAGUCGCAAG [Fam3.1 aminoacylation ribozyme variant] | 1.99 | 1.56 | 1.71 | 1.54 | 1.33 | 1.59
AAAUUUGCUAAUACUCGCAAG [Fam3.1 aminoacylation ribozyme variant] | 1.63 | 1.34 | 1.36 | 1.51 | 1.25 | 1.33
AAAUUUGCUAAUAGGCGCAAG [Fam3.1 aminoacylation ribozyme variant] | 1.29 | 1.04 | 1.41 | 1.25 | 1.51 | 1.28
AAAUUUGCUAAUAGUAGCAAG [Fam3.1 aminoacylation ribozyme variant] | 2.63 | 1.27 | 1.59 | 1.96 | 1.26 | 1.38
AAAUUUGCUAAUAGUCACAAG [Fam3.1 aminoacylation ribozyme variant] | 2.81 | 1.49 | 1.58 | 1.71 | 1.26 | 1.62
AAAUUUGCUAAUAGUCGCAAC [Fam3.1 aminoacylation ribozyme variant] | 1.64 | 1.51 | 1.88 | 1.52 | 1.91 | 1.31
AAAUUUGCUAAUAGUCGCAUG [Fam3.1 aminoacylation ribozyme variant] | 2.04 | 1.8 | 2.28 | 3.67 | 2.81 | 2.13
AAAUUUGCUACUAGUCGCAAG [Fam3.1 aminoacylation ribozyme variant] | 1.86 | 1.63 | 2.05 | 2.54 | 1.59 | 1.96
AACGUUGCUAAUAGUCGCAAG [Fam3.1 aminoacylation ribozyme variant] | 2.3 | 1.68 | 1.64 | 1.97 | 1.66 | 1.81
AACUUUACUAAUAGUCGCAAG [Fam3.1 aminoacylation ribozyme variant] | 6.76 | 1.86 | 2.07 | 2.92 | 2.26 | 2.23
AACUUUCCUAAUAGUCGCAAG [Fam3.1 aminoacylation ribozyme variant] | 2.29 | 1.11 | 1.29 | 1.72 | 1.58 | 1.4
AACUUUGAUAAUAGUCGCAAG [Fam3.1 aminoacylation ribozyme variant] | 2.61 | 1.42 | 1.71 | 1.55 | 1.91 | 1.66
AACUUUGCAAAUAGUCGCAAG [Fam3.1 aminoacylation ribozyme variant] | 4.66 | 1.94 | 2.3 | 1.99 | 2.8 | 1.96
AACUUUGCUAAGAGUCGCAAG [Fam3.1 aminoacylation ribozyme variant] | 12.8 | 2.62 | 2.78 | 5.02 | 4.13 | 3.93
AACUUUGCUAAUAGUCCCAAG [Fam3.1 aminoacylation ribozyme variant] | 3.69 | 1.64 | 1.92 | 1.51 | 1.6 | 1.56
AACUUUGCUAAUAGUCGCAAU [Fam3.1 aminoacylation ribozyme variant] | 6.33 | 2.51 | 2.94 | 2.77 | 3.35 | 2.79
AACUUUGCUAAUAGUCGGAAG [Fam3.1 aminoacylation ribozyme variant] | 3.03 | 1.4 | 1.43 | 1.49 | 1.15 | 1.38
AACUUUGCUAAUGGUCGCAAG [Fam3.1 aminoacylation ribozyme variant] | 9.47 | 2.43 | 2.47 | 3.24 | 2.64 | 2.44
AACUUUGCUAAUUGUCGCAAG [Fam3.1 aminoacylation ribozyme variant] | 9.97 | 2.39 | 2.78 | 4.3 | 2.44 | 2.71
AACUUUGCUACUAGUCGCAAG [Fam3.1 aminoacylation ribozyme variant] | 3.3 | 2.24 | 2.14 | 2.43 | 1.91 | 2.34
AACUUUGCUAGUAGUCGCAAG [Fam3.1 aminoacylation ribozyme variant] | 3.31 | 2.67 | 2.68 | 3.53 | 2.9 | 2.63
AACUUUUCUAAUAGUCGCAAG [Fam3.1 aminoacylation ribozyme variant] | 3.55 | 1.71 | 1.97 | 2.05 | 2.33 | 2.11
